In the Human Domainome abundance scans (Beltran et al. 2025):
± gives the uncertainty stated by the source.

B1: Double-stranded RNA-specific adenosine deaminase, residues 296 to 358; numbered along this chain, P55265 (parent)
chain: MAEIKEKICDYLFNVSDSSALNLAKNIGLTKARDINAVLIDMERQGDVYRQGTTPPIWHLTDK

Variants of: B1
Experiment: abundance fitness (aPCA) (normalised: wild type 0, dead -1); higher = more abundant; growth selection in yeast, the domain comes from the species named
Settings: Homo sapiens

Variant | abundance fitness
T53I | -0.744 ± 0.17
N14W | -0.426 ± 0.084
N14T | 0.086 ± 0.051
N14E | 0.102 ± 0.059
N14C | -0.215 ± 0.072
N14R | 0.285 ± 0.044
N14D | -0.312 ± 0.091
Y11P | -0.175 ± 0.06
Y11M | -0.429 ± 0.066
Y11G | -0.391 ± 0.049
Y11V | -0.359 ± 0.051
Y11S | -0.255 ± 0.052
L21E | 0.476 ± 0.063
L21N | 0.067 ± 0.079
L21H | -0.046 ± 0.092
L21Q | 0.158 ± 0.095
F13I | 0.142 ± 0.09
F13Y | 0.079 ± 0.077
F13P | -0.216 ± 0.082
F13T | 0.227 ± 0.057
F13R | 0.577 ± 0.04
G28V | -0.713 ± 0.069
G28W | -0.886 ± 0.11
G28A | -0.453 ± 0.056

Variant | abundance fitness
G28T | -0.655 ± 0.076
V15T | -0.392 ± 0.11
V15P | -0.64 ± 0.17
V15F | 0.045 ± 0.12
V15S | -0.137 ± 0.062
V15G | -0.377 ± 0.053
V15E | -0.025 ± 0.057
V15H | 0.489 ± 0.23
R50M | -0.555 ± 0.1
R50G | -0.453 ± 0.053
R50F | -0.601 ± 0.12
H59F | -0.329 ± 0.063
H59R | 0.281 ± 0.036
H59S | 0.263 ± 0.044
H59V | -0.282 ± 0.048
H59M | -0.259 ± 0.073
H59G | 0.215 ± 0.044
H59D | -0.375 ± 0.081
N26I | -0.271 ± 0.063
N26C | -0.338 ± 0.082
N26S | -0.103 ± 0.048
N26T | -0.403 ± 0.063
N26F | -0.328 ± 0.076
N26D | -0.539 ± 0.081

Variant | abundance fitness
N26E | 0.075 ± 0.089
N26L | -0.429 ± 0.059
S16A | -0.018 ± 0.048
S16V | -0.249 ± 0.061
S16K | 0.206 ± 0.079
S16I | -0.543 ± 0.11
N36W | -0.154 ± 0.07
N36R | -0.38 ± 0.046
N36H | 0.081 ± 0.064
N36F | -0.455 ± 0.098
N36Q | -0.156 ± 0.074
N36V | -0.428 ± 0.052
N36G | -0.366 ± 0.048
N36C | -0.397 ± 0.081
I57N | -0.352 ± 0.081
I57W | -0.476 ± 0.073
I57C | -0.567 ± 0.08
I57P | -0.481 ± 0.079
I57L | -0.281 ± 0.05
I57R | -0.125 ± 0.047
M42I | -1.03 ± 0.13
M42N | -0.412 ± 0.12
M42Q | -0.335 ± 0.057
M42D | -0.551 ± 0.082

Variant | abundance fitness
M42A | -0.479 ± 0.056
M42V | -0.774 ± 0.079
R44G | -0.334 ± 0.05
R44Y | -0.614 ± 0.13
R44W | -0.705 ± 0.14
R44I | -0.26 ± 0.092
R44L | -0.373 ± 0.055
R44H | -0.274 ± 0.13
K31E | 0.251 ± 0.083
K31P | 0.041 ± 0.057
K31G | -0.049 ± 0.044
K31S | 0.285 ± 0.042
K31H | 0.367 ± 0.063
K31A | -0.098 ± 0.045
K5G | -0.616 ± 0.084
K5V | -0.652 ± 0.073
K5N | -0.555 ± 0.097
K5F | -0.449 ± 0.066
K5A | -0.428 ± 0.058
A2W | -0.18 ± 0.064
A2S | -0.024 ± 0.063
A2N | 0.051 ± 0.078
A2H | -0.151 ± 0.18
I27R | -0.584 ± 0.053

Variant | abundance fitness
I27P | -0.452 ± 0.061
I27W | -0.818 ± 0.13
I27D | -0.277 ± 0.072
P56L | -0.656 ± 0.12
P56M | -1.28 ± 0.34
P56S | -0.57 ± 0.094
P56W | -0.818 ± 0.24
P56D | -0.447 ± 0.19
Q45T | -0.097 ± 0.062
Q45D | 0.17 ± 0.06
Q45S | 0.022 ± 0.038
Q45L | -0.524 ± 0.068
Q45F | -0.729 ± 0.082
I40T | -0.065 ± 0.074
I40W | -0.388 ± 0.066
I40M | 0.122 ± 0.058
I40C | -0.153 ± 0.077
I40G | -0.265 ± 0.055
I40Y | 0.043 ± 0.033
I40P | -0.387 ± 0.07
C9V | 0.217 ± 0.052
C9Q | -0.105 ± 0.075
C9L | 0.168 ± 0.046
C9A | -0.143 ± 0.05

Variant | abundance fitness
C9H | -0.125 ± 0.12
N22A | -0.297 ± 0.12
N22E | 0.165 ± 0.083
N22G | -0.314 ± 0.087
N22S | -0.323 ± 0.066
N22R | -0.682 ± 0.11
D41C | -0.822 ± 0.15
D41G | -0.348 ± 0.068
D41S | -0.501 ± 0.093
D47T | 0.205 ± 0.055
D47Q | 0.122 ± 0.058
D47E | 0.35 ± 0.049
D47F | -0.177 ± 0.086
D47S | -0.114 ± 0.051
D47W | -0.234 ± 0.069
D47H | -0.123 ± 0.071
A32G | -0.091 ± 0.049
A32Q | -0.034 ± 0.069
A32H | -0.204 ± 0.082
T61I | -0.818 ± 0.22
T61S | -0.052 ± 0.044
T61R | -0.282 ± 0.052
T61P | -0.411 ± 0.073
V38Y | -1.27 ± 0.39

Variant | abundance fitness
V38S | -0.316 ± 0.057
V38P | -0.24 ± 0.056
V38F | -0.952 ± 0.21
V38M | -0.488 ± 0.075
V38L | -0.253 ± 0.038
V38N | -0.195 ± 0.11
L39I | -0.756 ± 0.094
L39P | -0.385 ± 0.078
L39Q | -0.244 ± 0.066
L39T | -0.461 ± 0.064
S18F | -0.816 ± 0.15
S18Y | -0.698 ± 0.11
S18E | -0.49 ± 0.049
S18V | -0.699 ± 0.062
A20G | -0.45 ± 0.055
A20Q | -0.472 ± 0.094
A20F | -0.311 ± 0.071
A20S | -0.228 ± 0.052
A20D | -0.64 ± 0.26
A20V | -0.446 ± 0.056
A20Y | -0.901 ± 0.19
E43P | -0.729 ± 0.077
E43A | -0.66 ± 0.057
